The values that follow come from US20210389324.

Series [1] has as its target T1, CFP-FOXG1-YFP.
T1 chain: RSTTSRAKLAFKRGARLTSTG

Series [2] addresses T2, CFP-NT5M-YFP.
T2 chain: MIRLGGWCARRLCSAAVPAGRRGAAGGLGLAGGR

Series [3] has as its target T3, CFP-SFRP1-YFP.
T3 chain: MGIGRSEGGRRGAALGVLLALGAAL

Series [4] addresses T4, CFP-SFRP2-YFP.
T4 chain: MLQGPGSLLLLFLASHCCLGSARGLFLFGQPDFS

The target in series [5] is T5, CFP-SFRP4-YFP.
T5 chain: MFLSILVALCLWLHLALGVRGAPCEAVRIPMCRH

The target in series [6] is T6, CFP-SFVp12-YFP 11:6.
T6 chain: DVEELEYHAGAGVVETP

Series [7] deals with T7, CFP-SFVp12-YFP 19:6.
T7 chain: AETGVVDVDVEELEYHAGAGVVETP

B1: Recombinant ZIKV ns2B/ns3 Protease (protein)
chain: MGSSHHHHHHSSGLVPRGSHMVDMYIERAGDITWEKDAEVTGNSPRLDVALDESGDFSLVEDDGPPMAGGGGSGGGGSGALWDVPAPKEVKKGETTDGVYRVMTRGLLGSTQVGVGVMQEGVFHTMWHVTKGSALRSGEGRLDPYWGDVKQDLVSYSGPWKLDAAWDGHSEVQLLAVPPGERARNIQTLPGIFKTKDGDIGAVALDYPAGTSGSPILDKSGRVIGLYGNGVVIKNGSYVSAITQGRR
As for B1, the “cleavage of CFP-YFP substrate” value in series [1] is reported as “ZIKV ns2B-ns3 protease”; in series [2], “ZIKV ns2B-ns3 protease”; in series [3], “ZIKV ns2B-ns3 protease”; in series [4], “Control, not cleaved by ZIKV ns2B-ns3 protease”; in series [5], “Control, not cleaved by ZIKV ns2B-ns3 protease”.

B2: Recombinant CHIKV nsP2 protease (protein)
chain: SNAFQNKANVCWAKSLVPILETAGIKLNDRQWSQIIQAFKEDKAYSPEVALNEICTRMYGVDLDSGLFSKPLVSVYYADNHWDNRPGGKMFGFNPEAASILERKYPFTKGKWNINKQICVTTRRIEDFNPTTNIIPVNRRLPHSLVAEHRPVKGERMEWLVNKINGHHVLLVSGYNLALPTKRVTWVAPLGVRGADYTYNLELGLPATLGRYDLVVINIHTPFRIHHYQQCVDHAMKLQMLGGDSLRLLKPGGSLLIRAYGYADRTSERVICVLGRKFRSSRALKPPCVTSNTEMFFLFSNFDNGRRNFTTHVMNNQLNAAFVG
Take B2: the “cleavage of CFP-YFP substrate” value in series [6] is “CHIKV and VEEV nsP2 cysteine protease”; in series [7] it was “CHIKV and VEEV nsP2 cysteine protease”.
